Legend:
Test in all cases: SPR
Recombinant human IL-17A = Recombinant human IL-17A (human, UniProt Q16552 20-155, limits assumed)
[1] = molecular target: T1, His-tagged recombinant human CD-19 (human, UniProt P15391 20-291, limits assumed)
T1 sequence (looked up): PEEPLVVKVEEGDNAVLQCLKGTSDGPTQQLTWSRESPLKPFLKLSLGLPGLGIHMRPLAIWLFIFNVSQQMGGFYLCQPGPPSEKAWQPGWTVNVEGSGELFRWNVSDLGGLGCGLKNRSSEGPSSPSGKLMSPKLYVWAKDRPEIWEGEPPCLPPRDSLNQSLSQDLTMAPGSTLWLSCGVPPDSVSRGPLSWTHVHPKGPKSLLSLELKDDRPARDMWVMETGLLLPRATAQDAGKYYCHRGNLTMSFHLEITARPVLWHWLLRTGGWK

[2] = molecular target: His-tagged Influenza B Hemagglutinin (B/Brisbane/60/2008) (Influenza B (B/Brisbane/60/2008))

Chain of Recombinant human IL-17A (Q16552 20-155 limits assumed): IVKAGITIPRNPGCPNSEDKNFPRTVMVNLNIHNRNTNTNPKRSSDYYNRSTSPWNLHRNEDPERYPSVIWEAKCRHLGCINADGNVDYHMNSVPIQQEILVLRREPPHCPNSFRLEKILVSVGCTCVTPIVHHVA

B1: Design 2816 bispecific antibody, System A (CAT-2200 H1/L1 & Pertuzumab H2/L2) (bispecific antibody)
chain 1: not shown
chain 2: NFMLTQPHSVSESPGKTVTISCTRSSGSLANYYVQWYQQRPGSSPTIVIFANNQRPSGVPDRFSGSIDSSSNSASLTISGLKTEDEADYYCQTYDPYSVVFGGGTKLTVLGQPKAAPSVTLFPPSSEELQANKATLVCLISDFYPGAVTVAWKADSSPVKAGVETTTPSKQSNNKYAASSYLELTPEQWKSHRSYSCQVTHEGSTVEKTVAPTECS
chain 3: not shown
chain 4: DIQMTQSPSSLSASVGDRVTITCKASQDVSIGVAWYQQKPGKAPKLLIYSASYRYTGVPSRFSGSGSGTDFTLTISSLQPEDFATYYCQQYYIYPYTFGQGTKVEIKRTVAAPSVFIFPPSDERLKSGTASVVCLLNNFYPREAKVQWKVDNALQSGNSKESVTEQDSKDSTYSLSSRLTLSKADYEKHKVYACEVTHQGLSSPVTKSFNRGEC
B1 showed a Kd (Recombinant human IL-17A) of 0.51 nM.

B2: Design 2816 bispecific antibody, System C (CR8071 H1/L1 & SGN-CD19a H2/L2) (bispecific antibody)
chain 1: QVQLVQSGAEVKKPGASVRVSCRASGYIFTESGITWVRQAPGQGLEWMGWISGYSGDTKYAQKLQGRVTMTKDTSTTTAYMELRSLRYDDTAVYYCARDVQYSGSYLGAYYFDYWSPGTLVTVSSASTKGPSVFPLAPSSKSTSGGTAALGCLVKDYFPEPVTVSWNSGALTSGVHTFPAVLKSSGLYSLSSVVTVPSSSLGTQTYICNVNHKPSNTKVDKKVEPKSCDKTHTCPPCPAPELLGGPSVFLFPPKPKDTLMISRTPEVTCVVVDVSHEDPEVKFNWYVDGVEVHNAKTKPREEQYNSTYRVVSVLTVLHQDWLNGKEYKCKVSNKALPAPIEKTISKAKGQPREPQVYVYPPSRDELTKNQVSLTCLVKGFYPSDIAVEWESNGQPENNYKTTPPVLDSDGSFALVSKLTVDKSRWQQGNVFSCSVMHEALHNHYTQKSLSLSPG
chain 2: not shown
chain 3: not shown
chain 4: EIVLTQSPATLSLSPGERATLSCSASSSVSYMHWYQQKPGQAPRLLIYDTSKLASGIPARFSGSGSGTDFTLTISSLEPEDFAVYYCFQGSVYPFTFGQGTKLEIKRTVAAPSVFIFPPSDERLKSGTASVVCLLNNFYPREAKVQWKVDNALQSGNSKESVTEQDSKDSTYSLSSRLTLSKADYEKHKVYACEVTHQGLSSPVTKSFNRGEC
B2 was tested, and the Kd [1] was 281 nM and the Kd [2] was 0.42 nM.
